Measurements: US20250186598A1, “RECOMBINANT HUMAN SERUM ALBUMIN-COLLAGEN BINDING DOMAIN FUSION PROTEIN FOR TUMOR-SPECIFIC TARGETING MATRIX, AND USE THEREOF” (Huatong Forturn (China) Co., Ltd., priority 2020, published 2025)

Test system: cell proliferation
Experiment: Recombinant human EGF biological activity assay (cell proliferation method/MTT colorimetric method), Chinese Pharmacopoeia 2015 General Rule 3528
Format: cell-based
Method: According to the Pharmacopoeia method, the biological activity of the rHSA/CBD-EGF complex was measured at the cellular level [2015 edition of the Chinese Pharmacopoeia Three General Rules 3528: Recombinant human epidermal growth factor biological activity assay (cell proliferation method/MTT colorimetric method)].

Substance: rHSA/CBD: human CBD (vWF A3 domain) ligated to C-terminal of HSA through connecting peptide (GGGS)2; SEQ ID NO. 3
- Biological specific activity: None
